Laboratory results published in the supplement of paper PMC7125110.
± gives the standard error. This sample holds only a part of the variants without activity.

B1: glmS ribozyme (parent)
chain: AUAAAAGCGCCAGAACUACAGAAAUGUAGUUGACGAGGAGGAGGUUUAUCGAAUUUUCGGCGGAUGCCUCCAAA

Assays:
Conditions in all cases: with glucosamine-6-phosphate
glucosamine-6-phosphate [1] = variants of: B1; assay: self-cleavage kobs at 40 uM GlcN6P; higher = faster cleavage; RNA array
Procedure, shortened: (§1)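 A hybridised Cy3 probe tracked barcoded ribozyme variants, transcribed in situ by E. coli RNA polymerase on sequenced MiSeq chips, at 37 °C. The variants received 40 μM to 10 mM glucosamine-6-phosphate in HEPES/KCl/Mg(OAc)2 buffer. kobs came from decay fits and kcat and KM from weighted Michaelis–Menten fits.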

glucosamine-6-phosphate [2] = variants of: B1; assay: self-cleavage kobs at 160 uM GlcN6P; higher = faster cleavage; RNA array
Procedure, shortened: as §1

glucosamine-6-phosphate [3] = variants of: B1; assay: self-cleavage kobs at 640 uM GlcN6P; higher = faster cleavage; RNA array
Procedure, shortened: as §1

glucosamine-6-phosphate [4] = variants of: B1; assay: self-cleavage kobs at 2500 uM GlcN6P; higher = faster cleavage; RNA array
Procedure, shortened: as §1

glucosamine-6-phosphate [5] = variants of: B1; assay: self-cleavage kobs at 10000 uM GlcN6P; higher = faster cleavage; RNA array
Procedure, shortened: as §1

Variant | self-cleavage kobs at 40 uM GlcN6P (glucosamine-6-phosphate [1]) [s⁻¹] | self-cleavage kobs at 160 uM GlcN6P (glucosamine-6-phosphate [2]) [s⁻¹] | self-cleavage kobs at 640 uM GlcN6P (glucosamine-6-phosphate [3]) [s⁻¹] | self-cleavage kobs at 2500 uM GlcN6P (glucosamine-6-phosphate [4]) [s⁻¹] | self-cleavage kobs at 10000 uM GlcN6P (glucosamine-6-phosphate [5]) [s⁻¹]
G7U A12C G29C | < 1e-05 | < 1e-05 | < 1e-05 | < 1e-05 | 
C8A G38A | < 1e-05 | < 1e-05 | < 1e-05 | < 1e-05 | < 1e-05
G7U G9C C11G A12C U55A | < 1e-05 |  |  |  | < 1e-05
G7A A39C A52U G60A C67U | < 1e-05 |  |  |  | 
A6U C50G | 4.82e-05 ± 1.8e-05 | 6.77e-05 ± 2.7e-05 |  | 0.000434 ± 0.00021 | 2.57e-05 ± 1.3e-05
G7A U31A | < 1e-05 |  | < 1e-05 |  | 
C8A U45G U69C C71G | < 1e-05 |  |  |  | 
C8A G32U | < 1e-05 | < 1e-05 | < 1e-05 |  | < 1e-05
A6U C8G A36G U45A A64U | < 1e-05 |  | < 1e-05 |  | 
G7A G38U C58A | < 1e-05 |  |  |  | < 1e-05
C8A G41U | < 1e-05 | < 1e-05 | < 1e-05 | < 1e-05 | < 1e-05
G7U A14U A48G U56C A64U G66U | < 1e-05 |  |  |  | < 1e-05
G7U G37A | < 1e-05 |  |  |  | < 1e-05
A6U G7U C16G C34A | < 1e-05 |  |  |  | < 1e-05
G7U G35C | < 1e-05 | < 1e-05 | < 1e-05 | < 1e-05 | < 1e-05
G7U G35A | < 1e-05 | < 1e-05 | < 1e-05 | < 1e-05 | < 1e-05
G7A A36U | < 1e-05 | < 1e-05 | < 1e-05 | < 1e-05 | 
G7A A36C | < 1e-05 | < 1e-05 |  |  | < 1e-05
G7C A14U | < 1e-05 | < 1e-05 | < 1e-05 | < 1e-05 | 
A6U A36G A64U | < 1e-05 | < 1e-05 | < 1e-05 | < 1e-05 | < 1e-05
G7A G29C U57G C70G | 0.000158 ± 7.6e-05 |  |  |  | 0.000678 ± 0.00017
A6G G60A | < 1e-05 | < 1e-05 | < 1e-05 | < 1e-05 | < 1e-05
A6U G44A C70U | < 1e-05 |  |  |  | 

Variant | self-cleavage kobs at 40 uM GlcN6P (glucosamine-6-phosphate [1]) [s⁻¹] | self-cleavage kobs at 160 uM GlcN6P (glucosamine-6-phosphate [2]) [s⁻¹] | self-cleavage kobs at 640 uM GlcN6P (glucosamine-6-phosphate [3]) [s⁻¹] | self-cleavage kobs at 2500 uM GlcN6P (glucosamine-6-phosphate [4]) [s⁻¹] | self-cleavage kobs at 10000 uM GlcN6P (glucosamine-6-phosphate [5]) [s⁻¹]
C8A G43A | < 1e-05 | < 1e-05 | < 1e-05 | < 1e-05 | 
A6U G51A | < 1e-05 |  |  |  | < 1e-05
A6U A33U | < 1e-05 |  | < 1e-05 | < 1e-05 | < 1e-05
A6U A33G | < 1e-05 |  | < 1e-05 |  | 
C8A C34G | < 1e-05 | < 1e-05 | < 1e-05 | < 1e-05 | < 1e-05
A6U G62A | < 1e-05 | < 1e-05 |  |  | 
G7A A15U C58A | < 1e-05 |  | < 1e-05 | < 1e-05 | < 1e-05
G7U G63A | < 1e-05 |  |  |  | < 1e-05
G7A C58A C67G | 5.23e-05 ± 2.2e-05 |  |  |  | 
A6U A12C U45A A52C | < 1e-05 |  |  | < 1e-05 | < 1e-05
G7C G51A U56A C67G C68A | 0.000619 ± 0.0002 |  |  |  | 7.59e-05 ± 1.5e-05
G7U C8A | < 1e-05 | < 1e-05 |  | < 1e-05 | 
C8A G41U C50G | < 1e-05 |  |  |  | 
G7U C11G | < 1e-05 | < 1e-05 | < 1e-05 | < 1e-05 | < 1e-05
G7A A52C | < 1e-05 | < 1e-05 | < 1e-05 | < 1e-05 | < 1e-05
G7A A39C G51U | < 1e-05 | < 1e-05 |  | < 1e-05 | 
C8A G38U C50G | 4.1e-05 ± 2e-05 |  |  |  | 
A6U U57G | < 1e-05 |  |  |  | 
G7A G32U U47G C50U G63A C67G | 0.000556 ± 0.00014 |  |  |  | 0.000988 ± 0.00041
G7C G13C G63U C70G | < 1e-05 |  | < 1e-05 | < 1e-05 | < 1e-05
G7U U57A | < 1e-05 | < 1e-05 | < 1e-05 |  | < 1e-05
G7U G29A A48G | < 1e-05 |  |  |  | < 1e-05
G7U G44C | < 1e-05 | < 1e-05 | < 1e-05 | < 1e-05 | < 1e-05

Variant | self-cleavage kobs at 40 uM GlcN6P (glucosamine-6-phosphate [1]) [s⁻¹] | self-cleavage kobs at 160 uM GlcN6P (glucosamine-6-phosphate [2]) [s⁻¹] | self-cleavage kobs at 640 uM GlcN6P (glucosamine-6-phosphate [3]) [s⁻¹] | self-cleavage kobs at 2500 uM GlcN6P (glucosamine-6-phosphate [4]) [s⁻¹] | self-cleavage kobs at 10000 uM GlcN6P (glucosamine-6-phosphate [5]) [s⁻¹]
G7U G9C G35C A36U U49A U56A | < 1e-05 |  |  |  | 
A6U G35C C61U | < 1e-05 |  |  |  | 
G7U G62C | < 1e-05 | < 1e-05 | < 1e-05 | < 1e-05 | < 1e-05
G7U G62A | < 1e-05 | < 1e-05 | < 1e-05 | < 1e-05 | 
G7A G9C C16G | < 1e-05 | < 1e-05 | < 1e-05 |  | < 1e-05
G7U U30G C50G C61A | 0.000244 ± 8.9e-05 |  |  |  | 0.000292 ± 7.4e-05
G7C C67U | < 1e-05 | < 1e-05 | < 1e-05 | < 1e-05 | < 1e-05
C8A A42G C68U | < 1e-05 |  |  |  | < 1e-05
G7U G51A | < 1e-05 | < 1e-05 |  | < 1e-05 | < 1e-05
A6G U55G G66C C70A | 0.000223 ± 8.2e-05 |  | 0.000697 ± 0.00025 | 0.000623 ± 0.0002 | 0.000165 ± 5.3e-05
C8A A15G G60A | < 1e-05 |  | < 1e-05 | < 1e-05 | 
G7A A39G C58G | < 1e-05 |  |  |  | 
G7U C8G A12U U49G | < 1e-05 | < 1e-05 | < 1e-05 | < 1e-05 | < 1e-05
G7U G32U C67G | < 1e-05 |  |  | < 1e-05 | < 1e-05
G7A G13A C68U | < 1e-05 |  |  |  | 
A6U G43A | < 1e-05 | < 1e-05 |  |  | < 1e-05
C8A A48C | < 1e-05 | < 1e-05 | < 1e-05 | < 1e-05 | < 1e-05
G7A C34A | < 1e-05 | < 1e-05 | < 1e-05 | < 1e-05 | < 1e-05
C8A G38C C71A | < 1e-05 |  | < 1e-05 |  | 
G7U G38A | < 1e-05 | < 1e-05 |  |  | < 1e-05
G7C A64U | < 1e-05 |  |  | < 1e-05 | < 1e-05
G7C A64G | < 1e-05 | < 1e-05 | < 1e-05 | < 1e-05 | 
A6G U30G U54A C67G | < 1e-05 |  |  |  | < 1e-05

Variant | self-cleavage kobs at 40 uM GlcN6P (glucosamine-6-phosphate [1]) [s⁻¹] | self-cleavage kobs at 160 uM GlcN6P (glucosamine-6-phosphate [2]) [s⁻¹] | self-cleavage kobs at 640 uM GlcN6P (glucosamine-6-phosphate [3]) [s⁻¹] | self-cleavage kobs at 2500 uM GlcN6P (glucosamine-6-phosphate [4]) [s⁻¹] | self-cleavage kobs at 10000 uM GlcN6P (glucosamine-6-phosphate [5]) [s⁻¹]
A6U G63U | < 1e-05 | < 1e-05 | < 1e-05 | < 1e-05 | 
G7U U55G | < 1e-05 | < 1e-05 |  |  | < 1e-05
A6G U31C C68A | < 1e-05 |  |  |  | 
G7A A14U C58A C68G | 0.000142 ± 4e-05 |  | 0.00047 ± 0.00023 |  | 0.00011 ± 2.5e-05
G7U C10U G13C A52G | < 1e-05 |  |  |  | 
G7C G13U A33G U45G | < 1e-05 |  |  |  | 
G7C G40C | < 1e-05 |  |  | < 1e-05 | < 1e-05
G7U G32A G43A | < 1e-05 | < 1e-05 | < 1e-05 |  | < 1e-05
C8A C67G | < 1e-05 | < 1e-05 | < 1e-05 | < 1e-05 | < 1e-05
G7U G35U G38U G59C | < 1e-05 |  |  |  | < 1e-05
G7C G35U U54G | < 1e-05 |  |  | < 1e-05 | < 1e-05
G7A G9U A48G | < 1e-05 |  |  |  | 
A6U A15G U31G G41A | < 1e-05 |  |  |  | < 1e-05
G7U G37C A39C G62C | < 1e-05 |  |  |  | 
C8A A53G | < 1e-05 | < 1e-05 | < 1e-05 | < 1e-05 | < 1e-05
C8A G29U G60U | < 1e-05 |  |  |  | < 1e-05
G7U C10A A12U A36G C50G | 0.000144 ± 2.8e-05 |  | 0.0003 ± 0.0001 |  | 0.000157 ± 3.1e-05
G7U C10G A15C G37C | < 1e-05 |  |  |  | 
C8A C50U C67G | < 1e-05 |  |  |  | 
G7U A42U | < 1e-05 |  | < 1e-05 | < 1e-05 | < 1e-05
